From patent publication US20160074468A1 (GENUS ONCOLOGY, published 2016)

B1: MUC1 C-terminal subunit (MUC1-C) (other)
chain: GSVVVQLTLAFREGTINVHDVETQFNQYKTEAASRYNLTISDVSVSDVPFPFSAQSGAGVPGWGIALLVLVCVLVALAIVYLIALAVCQCRRKNYGQLDIFPARDTYHPMSEYPTYHTHGRYVPPSSTDRSPYEKVSAGNGGSSLSYTNPAVAATSANL
notes: Endogenous MUC1-C in lysates of SKBR3, BT474, SKBR3R and BT474R human breast cancer cells, precipitated with anti-MUC1-C
B2: GST-MUC1-CD in which the CQC motif had been mutated to AQA (other, not shown: a dimerising Fc or GST; large carriers; small tags and cut ends)
chain: AQARRKNYGQLDIFPARDTYHPMSEYPTYHTHGRYVPPSSTDRSPYEKVSAGNGGSSLSYTNPAVAATSANL
notes: also called MUC1-CD(AQA)

Columns and labels:
[1] = target: T1, HER2/ERBB2 receptor tyrosine kinase (human, UniProt P04626 23-1255); assay: co-immunoprecipitation: anti-MUC1-C precipitates of SKBR3 and BT474 lysates, immunoblot (FIG. 1B)
T1 construct: whole, on cells; Endogenous HER2 in cell lysates, detected by anti-HER2 immunoblot of precipitates or GST adsorbates; also called Neu; CD340
Text: (FIG. 1C). […] Lysates were immunoblotted with the indicated antibodies. […] IP, immunoprecipitated.

[2] = target: T1, HER2/ERBB2 receptor tyrosine kinase; assay: GST pull-down from SKBR3 cell lysates, anti-HER2 immunoblot (FIG. 2A, left)
Procedure: Lysates from SKBR3 (left) and BT474 (right) cells were incubated with the indicated GST or GST-fusion proteins. The adsorbates were immunoblotted (IB) with anti-HER2. Input of the GST proteins was assessed by Coomassie blue staining. […] Lysates were immunoblotted with the indicated antibodies. […] Lysates were immunoblotted with the indicated antibodies. […] Cell number (mean±s.e. of three determinations) was determined by Trypan blue staining. IP, immunoprecipitated.

Binder | binding result [1] | binding result [2]
B1 | binds | 
B2 |  | no binding
